Values quoted from earlier work, collected in article PMC2662774.

Legend:
[1] = biological target: CXCR4 sY21 P38 peptide 1-38 (Homo sapiens) (UniProt P61073); experiment: NMR titration
[2] = biological target: CXCR4 1-38 (sY21 P38) 1-38 (Homo sapiens) (UniProt P61073); experiment: NMR

Chain of SDF-1α (P48061 24-88): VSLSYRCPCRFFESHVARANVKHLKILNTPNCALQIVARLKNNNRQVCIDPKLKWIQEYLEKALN

For SDF-1α (from UniProt P48061), the Kd [1] is given as 1300 nM and the Kd [2] is given as 1300 nM.
